{"source": "patent US20230355541A1", "about": "“ENZYMATICALLY CLEAVABLE SELF-ASSEMBLED NANOPARTICLES FOR MORPHOGEN DELIVERY” (UNIVERSITY OF SOUTH CAROLINA, priority 2019, published 2023)", "data": [{"molecular_target": "T1, BSA (Bos taurus, UniProt P02769)", "T1 construct": "purchased Jackson ImmunoResearch (West Grove, Pa.)", "T1 sequence (P02769 25-607)": "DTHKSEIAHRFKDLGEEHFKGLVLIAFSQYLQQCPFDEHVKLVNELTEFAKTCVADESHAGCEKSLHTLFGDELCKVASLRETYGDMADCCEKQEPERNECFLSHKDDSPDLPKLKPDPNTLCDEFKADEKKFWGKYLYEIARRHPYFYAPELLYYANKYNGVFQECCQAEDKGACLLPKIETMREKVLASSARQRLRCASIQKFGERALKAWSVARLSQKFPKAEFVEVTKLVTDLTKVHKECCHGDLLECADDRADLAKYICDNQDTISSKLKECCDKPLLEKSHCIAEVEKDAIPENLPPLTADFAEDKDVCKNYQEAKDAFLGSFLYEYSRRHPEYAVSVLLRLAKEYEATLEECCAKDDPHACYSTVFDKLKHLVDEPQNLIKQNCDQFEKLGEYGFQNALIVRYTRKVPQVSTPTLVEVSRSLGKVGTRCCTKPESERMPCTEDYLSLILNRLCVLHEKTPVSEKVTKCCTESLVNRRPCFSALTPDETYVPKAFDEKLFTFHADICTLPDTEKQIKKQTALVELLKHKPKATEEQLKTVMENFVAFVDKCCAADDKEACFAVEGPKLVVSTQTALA", "test": "Circular dichroism of BSA grafted to PxSPCP NPs", "assay_type": "physicochemical, bovine", "conditions": "PBS, 20° C.", "procedure": "Bioactivity and Cell Compatibility of BMP2-PxSPCP NPs: Circular dichroism (CD) was used to determine the effect of grafting on secondary structure of the model BSA protein. CD spectra of free or grafted BSA in PBS were collected with a spectropolarimeter (JASCO J815, Essex, UK) at 20° C. with a cuvette of 0.1 cm path length. For evaluation of cell compatibility, hMSCs (1×10^6 cells/mL) and PxSPCP NPs (10 mg) were encapsulated in LPELA hydrogel and cultured in basal medium. At each time point, the hydrogels were stained with cAM/EthD live/dead assay (1 μg/mL) and the stained cells were imaged with an inverted fluorescent microscope (Nikon Eclipse Ti-ε, Nikon, Melville, N.Y.). To quantify cell viability, the medium was replaced with fresh medium containing 10% MTS and incubated for 6 hours at 37° C. and the sample absorbance was measured with a microplate reader (Molecular Devices, San Jose, Calif.) at a wavelength of 490 nm.", "values": [{"substance": "BSA-P2SPCP NPs: BSA grafted to P2SPCP NPs", "CD spectrum of grafted BSA compared with free BSA": "slight change"}, {"substance": "BSA-P7.5SPCP: BSA grafted to P7.5SPCP NPs", "CD spectrum of grafted BSA compared with free BSA": "substantially different"}, {"substance": "BSA-P5SPCP: BSA grafted to P5SPCP NPs", "CD spectrum of grafted BSA compared with free BSA": "substantially different"}, {"substance": "BSA-P0.5SPCP NPs: BSA grafted to P0.5SPCP NPs", "CD spectrum of grafted BSA compared with free BSA": "close to that of free BSA"}]}]}
